The values below come from PMC9474862.

This data set concerns the target APE1 WT (Homo sapiens) (UniProt P27695). As to the kind of experiment: EMSA. The conditions noted are these: apparent Kd, 1 mM EDTA, EMSA: 20 nM NCP, 10 mM HEPES pH 7.5, 25 mM NaCl, 1 mM DTT, 0.1 mg/mL BSA, 5% native PAGE, 0.2x TBE, 4 °C (gel), binding temperature not stated.
UniProt P27695, sequence (P27695 whole entry): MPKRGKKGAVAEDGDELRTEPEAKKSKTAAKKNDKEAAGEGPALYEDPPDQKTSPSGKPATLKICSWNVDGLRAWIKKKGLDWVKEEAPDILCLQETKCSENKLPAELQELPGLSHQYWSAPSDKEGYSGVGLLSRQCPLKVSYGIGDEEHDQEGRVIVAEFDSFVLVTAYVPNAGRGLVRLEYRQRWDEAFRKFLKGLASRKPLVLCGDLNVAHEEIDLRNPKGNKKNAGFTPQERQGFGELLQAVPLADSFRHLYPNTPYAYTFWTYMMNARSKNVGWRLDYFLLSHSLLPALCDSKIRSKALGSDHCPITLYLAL

For “ATCGAGAATCCCGGTGCCGAGGCCGCTCAATTGGTCGTAGACAGCTCTAGCACCGCTTAAACGCACGTACGCGCTGTCCCCCGCGTTTTAACCGCCAAGGGGATTACTCCCTAGTCTCCAGGCACGTGTCAGATATATACATNCGAT / ATCGGATGTATATATCTGACACGTGCCTGGAGACTAGGGAGTAATCCCCTTGGCGGTTAAAACGCGGGGGACAGCGCGTACGTGCGTTTAAGCGGTGCTAGAGCTGTCTACGACCAATTGAGCGGCCTCGGCACCGGGATTCTCGAT [AP-NCP-6.5]”, the Kd (one-site fit with ligand depletion, N in strand 1 = THF (AP site analog) at SHL-6.5, occluded) worked out at 0.02 µM.
Turning to “ATCGAGAATCCCGGTGCCGAGGCCGCTCAATTGGTCGTAGACAGCTCTAGCACCGCTTAAACGCACGTACGCNCTGTCCCCCGCGTTTTAACCGCCAAGGGGATTACTCCCTAGTCTCCAGGCACGTGTCAGATATATACATCCGAT / ATCGGATGTATATATCTGACACGTGCCTGGAGACTAGGGAGTAATCCCCTTGGCGGTTAAAACGCGGGGGACAGCGCGTACGTGCGTTTAAGCGGTGCTAGAGCTGTCTACGACCAATTGAGCGGCCTCGGCACCGGGATTCTCGAT [AP-NCP0]”, under “one-site fit with ligand depletion, N in strand 1 = THF (AP site analog) at SHL0 (dyad), occluded”, the Kd came to 0.02 µM.
For the sequence “ATCGAGAATCCCGGTGCCGAGGCCGCTCAATTGGTCGTAGACAGCTCTAGCACCGCTTAAACGCACGTACGCGCTGTCCCCCGCGTTTTAACCGCCAAGGGGATTACTCCCTAGTCTCCAGGCACGTGTCAGATATATACATCCGAT (double strand) [ND-NCP]”, the Kd (nonspecific binding, no AP site) came to 0.071 µM.
Turning to “ATCGAGAATCCCGGTGCCGAGGCCGCTCAATTGGTCGTAGACAGCTCTAGCACCGCTTAAACGCACGTACGCGCTGTCCCCCGCGTTTTAACCGCCAAGGGGATTACTCCCTAGTCTCCAGGCACGTGTCAGATATATNCATCCGAT / ATCGGATGTATATATCTGACACGTGCCTGGAGACTAGGGAGTAATCCCCTTGGCGGTTAAAACGCGGGGGACAGCGCGTACGTGCGTTTAAGCGGTGCTAGAGCTGTCTACGACCAATTGAGCGGCCTCGGCACCGGGATTCTCGAT [AP-NCP-6]”, the Kd (one-site fit with ligand depletion, N in strand 1 = THF (AP site analog) at SHL-6, solvent-exposed) worked out at 0.017 µM.
